Data from a protein production outcome set (Wang et al. 2014).

Assay: label from the status in PepcDB records
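Note: failed if final PepcDB status was selected cloned or expressed and not failed if soluble or beyond.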

Row | Sequence | protein production
1 | MPIQRREFIAAIGTGALATTAGCAQSGEGSGQTEAETEAESGGGGQPGVAGETLTLTTTTSTYDTGLLDEIHPDFEDMYGVSVDAVAQGTGAALESARNGDSDIVMVHARGLEDDFMRNGYGINRRDLMFNDFVIVGPEDDPAGIQGMGSATEALTTIAESESQFVSRGDNSGTHTKELNLWEAAGTEPGGNWYQETGTGMGEALNIANQQGAYTLSDRGTYISQRSEIDLVILVQGPIEDGPEILANPYGIMAVNPGVHDNANYDLAMAYIGWITSPGTQDAISNYQVNGEQLFFPEAVSEDPNFQQYVPEGWSSDAGE | failed
2 | MPIRVYTKVELALLYAPHLSENAALNNLSRWMRHNKLLMAALEEVGYYKYRHSFTPKEVRLIFRYMGEPGALEHHHHHH | not failed
3 | MPITVHAYTSLDNEEIRTQLERLYDTSPEFGDGQDAIEQLEQNLAQYTTVYTAEFNTKIIGAIWCTGQGESKILEYIVVHPANRGRGIAERLVSEVCRMEEAKGVTMFEPGCGAIHRCLAHIGKLSV | failed
4 | MPKAAWEPEYHRVFVDLCVEQKMLGNQPGTQHILKPFLQRTGARFTRNQLKNHWDTMIKQWKIWCRLVQCSDMQWDPQTNTFGANDQDWANYLHVNPEAGQYRLNPPSFLEKLELIFEDSNLDDEGTSGSKRKRIAKHRDEDNDNTGDEEDTQSASNFSSPQSKGYWSPSSHELFVDLLFQEALKGNRPDSHYPKETWKMILETINQNTGKSFTRPQLKNHWDCTRKSWKIWCQVIGAPVMKWDATSRTFGATDEDWKNYLKENHRAAPFRRKQLPHADKLATIFKGLIEPGKAYFRSYRRRVLDHHSESPQLHDPTPLSTLYTNEPVSGSEGGADEDDNDDDDEQPTPQHRRFNSVGFAESRLQDVEIVTPGCHRLKTELMKESPVSASVRQYEYTIGECIECLDSMEEVEQGSDLYLFALDLFVKKEYREIFLLLKNSSLRMSWLLRLRSGGLTIAA | failed
5 | MPKANLEIIRSTYEGSASSNAKHLAEALSEKVEWTEAEGFPYGGTYIGVEAIMENVFSRLGSEWNDYKASVNMYHEVSGKDVIIAEGMYSGVYKDTGKSFEAEFVHVWQLENGKIVKFKQYVDSHLVREAMKS | not failed
6 | MPKASLIIRERGLPKREVLLSPDRQWTIGRQLDCSIRLTDAYVSRLHAVINAFLFRGQPLYFIRDAHSRNGTFLNGFPLQHSTLLHHEDVIGVGTTLLVFYYPDMFREISLDECPLEHHHHHH | not failed
7 | MPKFDVSKSDLERLIGRSFSIEEWEDLVLYAKCELDDVWEENGKVYFKLDSKDTNRPDLWSAEGVARQIKWALGIEKGLPKYEVKKSNVTVYVDEKLKDIRPYGVYAIVEGLRLDEDSLSQMIQLQEKIALTFGRRRREVAIGIFDFDKIKPPIYYKAAEKTEKFAPLGYKEEMTLEEILEKHEKGREYGHLIKDKQFYPLLIDSEGNVLSMPPIINSEFTGRVTTDTKNVFIDVTGWKLEKVMLALNVMVTALAERGGKIRSVRVVYKDFEIETPDLTPKEFEVELDYIRKLSGLELNDGEIKELLEKMMYEVEISRGRAKLKYPAFRDDIMHARDILEDVLIAYGYNNIEPEEPKLAVQGRGDPFKDFEDAIRDLMVGFGLQEVMTFNLTNKEVQFKKMNIPEEEIVEIANPISQRWSALRKWILPSLMEFLSNNTHEEYPQRIFEVGLATLIDESRETKTVSEPKLAVALAGTGYTFTNAKEILDALMRHLGFEYEIEEVEHGSFIPGRAGKIIVNGRDIGIIGEVHPQVLENWNIEVPVVAFEIFLRPLYRH | not failed
8 | MPKFYCDYCDTYLTHDSPSVRKTHCSGRKHKENVKDYYQKWMEEQAQSLIDKTTAAFQQGK | not failed
9 | MPKRKNTSIKDYKLKSGKKRYMFQIYLGTNSNGKPIITRRRGFKSYAEAEAVFNKMSQIKPDNFVKQKQIKVAELRELWFENYKTQVKESTANKNKQVFDNHVIPAFGNQYIDKITVAELQKWADRKAKQIVKYRDAINEFNALFEYGIRLNYVSENPLKRIIIPKKTSRPRRDTEHNVYTQDELNQFLEVAKDYGLVPYTYFKLLSATGLRKSEALALTWSDINLTAGTLSVNKTLAYGLNGKTIIQPPKSPKSKRILPISDGLKEVLIDYKRKQKIISKELFHTNKGTYLRISKPDQWLKSIYAKDHEEKAEYAKKYNLKEPQPDLRHITVHGFRHTFATLLIAETNVKPKTVQMLLGHENIQMTLDIYTHINKKNTEDAVNALKQLNI | failed
10 | MPKRSKEDTEITIQKIMDAVVDQLLRLGYDKMSYTTLSQQTGVSRTGISHHFPKKTDFTAALDGRIFKMFIEHLEFEKGLDAFSQSWIKALEDSEFLAILRLLFHHIVTSESAHEFAANGIDRLYKMVESQFGSGGDKELEWLIGRSLIQMSK | not failed
11 | MPKSMGMAVAVPVTLAVIAAGGAGVGAYMYNERNLALEELARQSELSGSIATLETEVAGLTSQVKAAEGQLGDLNGQLEAAKAELAEVQGQHDRLSSELEPMRAEIASFDSRKAEAEESTAKAIADFQAADARLKELTDREDNLRATVSKLAAEVQDLDRRMEGLRAESGALVAAAQSAARQRTDLQGMVETLAGLLATRSEELVQLERRIGEQDLKVPAAGPAPLAAAAGAASQAPDGAGAAEPAAKEAETAAPETDAAGQTASQAEGSEAGSQPAAEPEAAEADGGNGAAEEPEAGAQDEGADAAAEPAPTGASEDAPDDAAAEGSTAEAEAAPEASGSTAGASDDAASQGSTAASEEPEAAPPSEAPAKAEAPDLGAGTYGIGPLFATFSPDGSFTMRNVELDTSASGKWEVTDGLLTLSDPEGGSGSSSFPMLCQLVKEAEALKLAKAQTGSCPLAGMEIARR | failed
12 | MPKWTPYKRHPGVYEYQTKKGKRFGVRRTYDDAMGERKEFSKSGFIHWQDADIEIKRFEAKLVSGEVSGSLANRMTIDQYYQQMAKRKMKMGIWRESTARANGNFYSKYLKPAFGKTPLQDVSRAKYQRFLDELSQSGLALTTVHTIDAVMKSIMNAAEFEDVIDKNRLRGMQINGKAPRNKDLEPHSFELWLNAAKTNLDKYEMALIITATLGLRRGEVMGLRNESIKISHDQINDADVAQISIDMQRNTNELNGGPLKTKSSYRTIWAFGKTVDHLKYAMITADNLRQRNNIQAEKHWLWLNNDGNPLHPTHLNRLMRRVSNRSGVEVYPHLLRHYFATQAIAANKPQIDVMHYLGHKNLQMTADYTRSTKAASLNVFNSIDKFL | failed
13 | MPLAIIPWFELPSASLGPFTLQSFGVLSALGILAAVQLSARGAKQLGKDPQVILDFAVVGVLAGVVVGHLAHLFFYHPEELQDPLRIFKFWEGLSSMGGLAGGMIAAAVYFRRKRVRFTAYADAFALGVAPGWGIARVGCFTVHDHPGRLTDFFLAVRFPDGPRHDLGLYEAILLLSLGAVLWALHRRDVLRGRLLPLLALVYGIGRFLLDFLRATDVSYADARHLGLTFAQYFAVALVAYAVWGFARRPSDEERVRVSTGVGRR | failed
14 | MPLAVLERDGSFLGVLTPHSIVEVLLERERRLLEDARKINAEIRREADKAIEQLDIKAHYDTVTGLPNRQLFCDRLLQALAAHERDGNPVVLLFLDVDNFKSINDSLGHLVGDRLLRATAERIRTAVRDGDTVARIGGDEFTILLNGAKDTLNGALVAQKILDGLAQPFVFGAQQIVISVSIGIAVSPADGETMEQLLRNADTAMYHAKSRGKNNYQFFSPELNVQAYRRQEIERNLRCALLQGELGLRYAPRVDLRSGRIVALEVCPFWLSSELGDVPPDDFIPVAEETGLIVQIGIWAFRTACAHAAVWRTQGLADRCLSFRLSQRELDDPQFGDRIMSLLDGCGLEPENLQFELSERMLMTHAAHTLAVLQELSNRGIRFSVGDFGTGNASLRRLRRFPIDELKIDLSSVRDIEPDSDDAAVITAMIAMAKSLRMDVVAVGVETPEHVAFLLERGCRHGQGRLIGARLPPERIAALLAGDAVDLFVALEHHHHHH | failed
15 | MPLGSSAPPRMGGHTALAAALWPRRTDGFSAWLRMAVLIAFGSVLLALSAKVNLPLPLVPMTLQTLMVVLIGAAYGARLGAATVLAYLAEGAAGLPVFAGPVGGLAPLLGPTAGYLAGFVVAAVLVGWCADRGFDRSVAKLFAAMLAGHLAILTLGFAWLAFGLHLGLAKAWWVGVVPFLAGSLVKSALGAALLPAVRRIVDRQR | failed
16 | MPLHRTPRTGPEPRTLALLAGAGLAAGAAAWAVSRSRENPVVFRPNDDAPDRVARHPEATMPTGRTVTINRPRSELFAFWRDFSNLPQFMESVEHVTVVGDVSRWTLAAPFGRKITLETRIVEEVPDRLIAWRSTDGSDVRAEGAVTFRDAPAGRGTEVEAVVAYVPAGGEAGRLIARLFRLAPAMQGRRELRRFKMLMEAGEIATSRNRKD | failed
17 | MPLKSLKNRLNQHFDLSPRYGSVKKIMPNIVYADGFNPSVGDVVKIEKSDGSECVGMVVVAEKEQFGFTPFNFIEGARAGDKVLFLKEGLNFPVGRNLLGRVLNPLGQVIDNKGALDYERLAPVITTPIAPLKRGLIDEIFSVGVKSIDGLLTCGKGQKLGIFAGSGVGKSTLMGMITRGCLAPIKVIALIGERGREIPEFIEKNLKGDLSSCVLVVATSDDSPLMRKYGAFCAMSVAEYFKNQGLDVLFIMDSVTRFAMAQREIGLALGEPPTSKGYPPSALSLLPQLMERAGKEENKGSITAFFSVLVEGDDLSDPIADQTRSILDGHIVLSRELTDYGIYPPINILNSASRVAKDIISESQNLCARKFRRLYALLKENEMLIRIGSYQMGNDKELDEAIKKKALMEQFLAQDENALQPFETSFQQLEEILR | failed
18 | MPLLQKRVIVSNKREKVINDRRSRQQTVTPAGSEMRYEASFRPENGGLEVVFRLDAPQYHALSVGDRGMLSYKGTAFVAFTPDPLEHHHHHH | not failed
19 | MPLLYILAIVVIVIILILLGIIAANYKKSGPQAALIVYGSGLGSKGVNKDSQGNRLKVVRGSGTFVLPIFQNARYLSLQSAAIDIKTEKVLSKDKIPVTVEATAMIKVGSTLQDIATAAEQFLGKRDEQRDAMADQVLRGHLRAIVGTMTVSELIEDRNKFSAEVQGQAGTDLSKMGLSIVSFVINDIRDDQNYIKALGAKEVARVQQEAAIAVANADKETRIQKAAADQDAQKAEALAATQVANAQKEKAISLAHYEQEQSIAAAEAKAQADQAQASADQAYAIQEAISKKETTEAEMQVELIKKQRETDLETQEVLRKAQENEANVVKAAEAAKAAQIAKAEADAREREVRAQAEAAAIEATAKATAKQREVTAMAEATAIEATGKAEAEAIRLKGLAEAEAIDKKAEAMQKMNDAAKLNMALEILPEVVASVSSNLQAVDSINIYGGEGSSKILGMSQESLKQGLDVLGTMGIDVPDLLNNFSSRGNSNETLEKVEKIEE | failed
20 | MPLPADPSPTLSAYAHPERLVTADWLSAHMGAPGLAIVESDEDVLLYDVGHIPGAVKIDWHTDLNDPRVRDYINGEQFAELMDRKGIARDDTVVIYGDKSNWWAAYALWVFTLFGHADVRLLNGGRDLWLAERRETTLDVPTKTCTGYPVVQRNDAPIRAFRDDVLAILGAQPLIDVRSPEEYTGKRTHMPDYPEEGALRAGHIPTAVHIPWGKAADESGRFRSREELERLYDFINPDDQTVVYCRIGERSSHTWFVLTHLLGKADVRNYDGSWTEWGNAVRVPIVAGEEPGVVPVV | not failed
21 | MPLPRVSPVPLAGPGRRGEGGVSSAPLAGGPWAAGRRRLPGLLIIFRRVFTVGFWVGGVLAKKYPFLLGLDRVLELVTGFRGEAARRVLAGDEDLVGLGFRRAVAAVEGWLDYPFADTVEGEVASFYLGLAIAYRAGPAAVSRVVAGEYLRASRLLAGEPGEVASGILGGLGFPVERGGLSVPWVVDRRGVVMLPLGWRMGVDVFLRLSAADESSPELRLANQMLLSGSVYLSDARLRALASAASRLAIESRVSEAASLESEAVERYARHLAALAEGGLPFIPEALPQCIKNVFAKAVGGERLGWLELYLALVFLARIRAGPDAVEELLTPSLGERVARLLARVYSQAPPADHQLPPCEVLAASGVCRCRGSLLSEYRRSVRSLLGLPDRGAGRR | failed
